Laboratory results from the supplement of paper PMC10567573.

B1: ADAMTS4 (parent)
chain: HVDPEEPWSPCSARFITDFLDNGY
B2: NFE2L1 (parent)
chain: TLDGYGIHPKSIDLDNYFTARRLL

Variants of: B1
Test: protein stability index of a GFP-peptide fusion (GPS, HEK-293T) (PSI 1-6); higher = more stable
Conditions: c terminus: a fixed tail appended
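Note: lentivirally expressed fusions sorted by FACS into six bins by GFP to DsRed ratio, PSI derived from sequencing read proportions per bin multiplied by bin number.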

Protein stability index: each site, then its substitutions
D3: N 2.21, S 2.48, E 1.75, M 1.89, R 1.8, G 2.78, C 2.63
E5: N 1.96, A 2.37, D 1.9, M 2.17, K 2.58, V 1.92, L 2.31, T 2.96, P 2.29, F 2.72, H 1.66, W 2.79, S 2.35, I 2.32, C 2.19, Y 3.13, R 2.77, Q 2.43, G 2.13
W8: T 3.54, E 3.92, V 3.5, H 3.44, I 3.34, C 3.39, R 3.36, Q 3.37, A 3.47, L 3.24, S 3.27, G 3.2, F 2.29, P 3.49, N 2.95, D 3.66, Y 2.89, M 2.82, K 3.48
H1: M 1.95, W 1.78, I 2.1, G 2.81, F 3.17, C 2.17, A 2.09, K 1.91, R 2.26, V 2.04, P 2.57, L 1.78, E 2.76, D 2.4, N 2.37, Y 2.29, Q 2.31, S 2.54, T 2.77

Variants of: B2
Test: as above
Conditions: c terminus: a fixed tail appended

Protein stability index, by site and new letter:
A20: K 2.34, D 2.76, H 1.66, R 2.17, L 1.53, P 1.84, M 1.96, C 1.6, N 1.49, E 1.87, S 2.03, I 1.77, Y 1.92, Q 2.23, G 1.71, T 1.49, V 1.35, F 1.8, W 2.04
T19: P 2, W 2.08, V 1.66, Y 1.8, Q 1.77, S 1.9, N 2.09, M 1.67, L 1.26, R 2.81
R21: G 2.4, T 1.56, F 1.77, C 1.7, M 1.86, H 2.8, W 1.08, V 2.72, N 1.8, K 1.96, A 1.67, P 2.05, E 2.12, Q 1.71, S 1.69, L 1.9, Y 3.26, D 2.67, I 1.6
L23: E 2.6, W 1.82, I 1.64, S 3.05, C 2.41, G 2.42, P 2.54, A 2.62, Y 2.33, M 2.03, N 2.32, F 1.93, H 2.18, D 2.4, K 3.26, V 1.66, Q 2.71, R 3.19, T 2.17
L24: Y 1.72, R 3.05, F 2.42, C 1.84, P 2.56, V 2.08, S 2.48, E 2.79, N 2.48, G 2.56, A 2.26, M 2.5, Q 1.85, I 1.75, K 2.9, T 2.42, H 2.14, W 2.31, D 2.69
R22: F 1.6, N 1.85, A 1.49, H 2.2, Q 1.89, G 2.53, E 1.88, S 1.69, D 2.05, Y 1.89, V 1.71, T 2.25, K 2.2, P 1.97, W 2.21, I 3.54, C 2.16
